Data reported in paper PMC10798921, “Target-induced hot spot construction for sensitive and selective surface-enhanced Raman scattering detection of matrix metalloproteinase MMP-9”.

Assays:
Conditions in all cases: protein: recombinant; label: 13-nm gold nanosphere via DNA1 3' thiol; partial duplex: aptamer 5' part pairs with DNA1; aptamer 3' overhang; DNA1 3' AAA tail
[1] = biological target: MMP-9 (human, UniProt P14780 107-707); experiment: SERS nanosensor (aptamer strand displacement, AuNS aggregation; UV-vis, DLS, TEM); MMP-9 10 ng/mL (selectivity), 350 ng/mL (UV-vis, DLS, TEM); AuNS-2 with DNA2/DTNB present; Assay buffer for MMP-9 in solution not in the material; duplex annealed in 8 mM phosphate, 0.8 mM MgCl2, 20 mM NaCl; cell supernatant assay at 37 C for 2 h
[2] = biological target: MMP-2 (human, UniProt P08253 110-660); experiment: SERS nanosensor (aptamer strand displacement); 100 ng/mL; AuNS-2 with DNA2/DTNB present; Assay buffer for MMP-9 in solution not in the material; duplex annealed in 8 mM phosphate, 0.8 mM MgCl2, 20 mM NaCl; cell supernatant assay at 37 C for 2 h
[3] = biological target: T1, MMP-7 (human, UniProt P09237 95-267); experiment: as above
T1 sequence: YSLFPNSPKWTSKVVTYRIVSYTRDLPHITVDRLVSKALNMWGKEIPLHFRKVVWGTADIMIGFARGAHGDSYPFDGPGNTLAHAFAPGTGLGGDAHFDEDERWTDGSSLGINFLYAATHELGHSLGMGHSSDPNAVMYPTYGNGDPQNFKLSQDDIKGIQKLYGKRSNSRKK

[4] = biological target: MMP-3 (human, UniProt P08254 100-477); experiment: as above
Chain of MMP-3 (P08254 100-477): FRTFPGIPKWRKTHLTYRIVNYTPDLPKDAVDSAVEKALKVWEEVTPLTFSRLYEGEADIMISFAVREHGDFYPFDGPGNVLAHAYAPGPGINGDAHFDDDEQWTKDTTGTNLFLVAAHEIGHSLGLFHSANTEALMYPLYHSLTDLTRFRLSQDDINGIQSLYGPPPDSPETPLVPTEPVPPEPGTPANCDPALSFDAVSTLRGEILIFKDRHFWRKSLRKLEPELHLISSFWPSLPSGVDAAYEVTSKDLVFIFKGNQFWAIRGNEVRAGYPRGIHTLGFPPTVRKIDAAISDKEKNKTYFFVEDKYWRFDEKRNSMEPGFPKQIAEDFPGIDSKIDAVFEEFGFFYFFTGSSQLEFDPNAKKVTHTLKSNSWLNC

Chain of MMP-9 (P14780 107-707): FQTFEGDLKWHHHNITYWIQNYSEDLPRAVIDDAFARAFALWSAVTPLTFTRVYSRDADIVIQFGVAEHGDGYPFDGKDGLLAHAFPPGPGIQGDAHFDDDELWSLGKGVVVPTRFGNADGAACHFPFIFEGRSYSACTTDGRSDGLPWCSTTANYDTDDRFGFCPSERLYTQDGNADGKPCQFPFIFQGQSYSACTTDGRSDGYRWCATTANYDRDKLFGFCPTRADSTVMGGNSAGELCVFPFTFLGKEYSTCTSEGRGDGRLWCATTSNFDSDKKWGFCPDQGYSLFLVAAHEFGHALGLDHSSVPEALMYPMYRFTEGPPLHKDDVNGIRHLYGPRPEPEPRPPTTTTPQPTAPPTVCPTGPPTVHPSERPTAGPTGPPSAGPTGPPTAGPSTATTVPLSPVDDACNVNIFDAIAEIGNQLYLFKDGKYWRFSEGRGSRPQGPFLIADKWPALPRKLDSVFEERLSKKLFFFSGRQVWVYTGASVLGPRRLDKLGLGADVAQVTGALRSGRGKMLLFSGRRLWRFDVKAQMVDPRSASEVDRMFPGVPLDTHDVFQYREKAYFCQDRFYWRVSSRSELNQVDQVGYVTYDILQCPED
Chain of MMP-2 (P08253 110-660): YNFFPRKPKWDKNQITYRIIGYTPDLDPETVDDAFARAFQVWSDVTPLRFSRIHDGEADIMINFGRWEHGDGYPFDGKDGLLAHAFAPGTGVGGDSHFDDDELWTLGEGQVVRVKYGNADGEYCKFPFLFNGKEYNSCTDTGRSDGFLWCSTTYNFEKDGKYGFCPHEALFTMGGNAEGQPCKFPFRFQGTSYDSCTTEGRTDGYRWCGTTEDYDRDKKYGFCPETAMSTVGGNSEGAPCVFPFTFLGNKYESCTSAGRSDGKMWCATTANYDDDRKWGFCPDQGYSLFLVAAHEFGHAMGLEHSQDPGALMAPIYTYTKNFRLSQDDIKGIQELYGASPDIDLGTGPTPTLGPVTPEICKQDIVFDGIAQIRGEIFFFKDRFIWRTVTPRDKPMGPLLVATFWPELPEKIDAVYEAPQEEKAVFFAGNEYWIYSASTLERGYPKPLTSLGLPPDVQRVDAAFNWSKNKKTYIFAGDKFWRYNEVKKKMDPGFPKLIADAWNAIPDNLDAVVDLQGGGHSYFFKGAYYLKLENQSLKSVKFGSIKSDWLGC

B1: MMP-9 aptamer (annealed to DNA1 on AuNS-1) (mixed)
DNA 1: TCGTATGGCACGGGGTTGGTGTTGGGTTGG
DNA 2: GGTGTGCCATACGAAA
modifications: DNA1 3' ThioMC3-D
- binding result [1]: binds
- binding result [2]: no binding
- binding result [3]: no binding
- binding result [4]: no binding
